Source: US20160053025A1 (SAMSUNG ELECTRONICS, published 2016)

Assays:
Assay in all cases: ELISA, antibody coated, FLAG-tagged mutant Ang2 RBD detected with anti-FLAG-HRP
[1] = biological target: T1, Ang2 RBD P419A, FLAG-tagged (human, UniProt O15123 281-496, limits assumed)
T1 chain: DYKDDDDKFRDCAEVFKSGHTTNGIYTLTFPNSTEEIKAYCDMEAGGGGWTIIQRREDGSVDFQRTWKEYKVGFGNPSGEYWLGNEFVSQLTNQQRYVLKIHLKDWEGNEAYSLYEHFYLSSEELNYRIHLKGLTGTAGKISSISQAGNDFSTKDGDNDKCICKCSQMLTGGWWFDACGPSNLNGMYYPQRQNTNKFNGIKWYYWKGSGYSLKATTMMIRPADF
Description: (§1) To verify the epitope (or specific binding site) of the anti-Ang2 antibody prepared in Reference Example 2.3, an ELISA was performed using a recombinant protein where a receptor binding domain (RBD) of Ang2 protein in the form of being tagged with Flag was mutated by artificial means.
(§2) Each well of a 96-well MaxiSorp™ flat-bottom plate (Nunc) was coated with 50 ul (microliter) of 1000 nM antibody. Then, the plate was washed five times with 0.05% (v/v) Tween-20-containing PBS (PBST) and blocked with 1% (v/v) BSA-containing PBS at a room temperature for 2 hours. 250 ng of each mutant Ang2 protein obtained by substituting S417, Q418, P419, N421, 1434, D448, A449, P452, Y460, N467, K468, or F469 residue of Ang2 protein tagged with a FLAG sequence ([…], Sigma) at its N-terminal with alanine was added to each well of the plate, which was then allowed to react at a room temperature for 2 hours.
(§3) Finally, 50 ul of TMB substrates (Cell signaling) was added to each well of the plate to induce color development at a room temperature for 3 min. and the reaction was ceased by the addition of 50 ul of Stop solution (Cell signaling) and then, OD450 values were measured on a plate reader (Molecular Devices). By comparing binding affinities with mutated Ang2 to those of unmutated Ang2, each epitope of Ang2 antibodies was identified. The obtained measurement results of the binding affinities (%) with mutant Ang2 against the binding affinity with the native Ang2 are shown in the following Table 13.

[2] = biological target: T2, Ang2 RBD F469A, FLAG-tagged (human, UniProt O15123 281-496, limits assumed)
T2 chain: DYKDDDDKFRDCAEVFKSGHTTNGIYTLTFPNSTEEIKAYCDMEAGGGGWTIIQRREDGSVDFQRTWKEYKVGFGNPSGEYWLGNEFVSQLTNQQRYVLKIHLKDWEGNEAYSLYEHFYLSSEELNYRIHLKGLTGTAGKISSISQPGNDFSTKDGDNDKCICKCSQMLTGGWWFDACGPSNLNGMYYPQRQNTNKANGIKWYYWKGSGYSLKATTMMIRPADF
Description: as §1, §2, §3

[3] = biological target: T3, Ang2 RBD D448A, FLAG-tagged (human, UniProt O15123 281-496, limits assumed)
T3 chain: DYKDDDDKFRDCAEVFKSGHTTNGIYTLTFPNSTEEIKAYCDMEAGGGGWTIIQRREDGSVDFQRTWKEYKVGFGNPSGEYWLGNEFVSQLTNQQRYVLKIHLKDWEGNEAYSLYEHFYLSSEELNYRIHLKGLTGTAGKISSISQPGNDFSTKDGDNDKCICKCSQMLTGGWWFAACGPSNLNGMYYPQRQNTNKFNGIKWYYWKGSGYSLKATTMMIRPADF
Description: as §1, §2, §3

[4] = biological target: T4, Ang2 RBD N467A, FLAG-tagged (human, UniProt O15123 281-496, limits assumed)
T4 chain: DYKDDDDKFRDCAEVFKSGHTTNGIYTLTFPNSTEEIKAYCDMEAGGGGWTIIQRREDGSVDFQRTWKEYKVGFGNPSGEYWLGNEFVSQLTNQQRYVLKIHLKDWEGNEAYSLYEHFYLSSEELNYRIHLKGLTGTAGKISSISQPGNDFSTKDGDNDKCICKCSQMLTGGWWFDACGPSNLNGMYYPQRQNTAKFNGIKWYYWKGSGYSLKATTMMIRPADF
Description: as §1, §2, §3

[5] = biological target: T5, Ang2 RBD S417A, FLAG-tagged (human, UniProt O15123 281-496, limits assumed)
T5 chain: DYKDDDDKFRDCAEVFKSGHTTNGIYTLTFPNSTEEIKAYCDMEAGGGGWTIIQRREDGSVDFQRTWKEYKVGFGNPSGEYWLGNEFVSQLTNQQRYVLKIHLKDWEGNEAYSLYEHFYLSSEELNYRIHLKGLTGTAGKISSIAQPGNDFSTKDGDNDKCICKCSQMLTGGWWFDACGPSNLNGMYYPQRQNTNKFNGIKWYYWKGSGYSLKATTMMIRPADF
Description: as §1, §2, §3

[6] = biological target: T6, Ang2 RBD K468A, FLAG-tagged (human, UniProt O15123 281-496, limits assumed)
T6 chain: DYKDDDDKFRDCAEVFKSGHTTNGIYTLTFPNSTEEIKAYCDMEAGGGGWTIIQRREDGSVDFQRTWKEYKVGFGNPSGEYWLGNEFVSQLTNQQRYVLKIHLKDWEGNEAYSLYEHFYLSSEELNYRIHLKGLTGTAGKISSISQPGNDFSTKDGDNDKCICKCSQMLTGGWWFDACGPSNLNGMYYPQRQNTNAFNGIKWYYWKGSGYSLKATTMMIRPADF
Description: as §1, §2, §3

[7] = biological target: T7, Ang2 RBD N421A, FLAG-tagged (human, UniProt O15123 281-496, limits assumed)
T7 chain: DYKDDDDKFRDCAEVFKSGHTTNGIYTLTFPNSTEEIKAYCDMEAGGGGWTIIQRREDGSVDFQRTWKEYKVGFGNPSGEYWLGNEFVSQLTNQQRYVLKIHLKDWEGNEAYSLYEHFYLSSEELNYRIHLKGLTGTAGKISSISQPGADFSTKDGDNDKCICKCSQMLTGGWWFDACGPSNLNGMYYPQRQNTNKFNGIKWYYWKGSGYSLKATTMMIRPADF
Description: as §1, §2, §3

B1: SAIT-ANG2-AB-m10D6 (antibody, V domains shown)
VH: DVQLQESGPDLVKPSQSLSLTCTVTGYSITSDYAWNWIRQFPGNKLEWMGYINYSGNTDYNPSLKSRSSITRDTSKNQFFLQLNSVTTGDTATYYCARGNFEGAMDYWGQGTSVTVSS
VL: SIVMTQTPKFLLVSAGDRVTITCKASQSVSNDVAWYQQKPGQSPKLLIYYASNRYPGVPDRFTGSGYGTDFTFTISTVQAEDLAVYFCQQDYSSPWTFGGGTKLEIK
notes: Mouse monoclonal antibody purified from a hybridoma (KCLRF-BP-00295); it is not applied here; also called mouse antibody 10D6; 10D6 antibody
binding affinity (%) with mutant Ang2 against the binding affinity with the native Ang2 [1]: 41.1% | binding affinity (%) with mutant Ang2 against the binding affinity with the native Ang2 [2]: 109% | binding affinity (%) with mutant Ang2 against the binding affinity with the native Ang2 [3]: 105% | binding affinity (%) with mutant Ang2 against the binding affinity with the native Ang2 [4]: 107% | binding affinity (%) with mutant Ang2 against the binding affinity with the native Ang2 [5]: 101% | binding affinity (%) with mutant Ang2 against the binding affinity with the native Ang2 [6]: 110% | binding affinity (%) with mutant Ang2 against the binding affinity with the native Ang2 [7]: 109%
